Assay [1] deals with T1, endogenous mouse GIPR (mouse (endogenous in primary mouse adipocytes and Neuro-2a cells)) (UniProt Q0P543).
T1 sequence: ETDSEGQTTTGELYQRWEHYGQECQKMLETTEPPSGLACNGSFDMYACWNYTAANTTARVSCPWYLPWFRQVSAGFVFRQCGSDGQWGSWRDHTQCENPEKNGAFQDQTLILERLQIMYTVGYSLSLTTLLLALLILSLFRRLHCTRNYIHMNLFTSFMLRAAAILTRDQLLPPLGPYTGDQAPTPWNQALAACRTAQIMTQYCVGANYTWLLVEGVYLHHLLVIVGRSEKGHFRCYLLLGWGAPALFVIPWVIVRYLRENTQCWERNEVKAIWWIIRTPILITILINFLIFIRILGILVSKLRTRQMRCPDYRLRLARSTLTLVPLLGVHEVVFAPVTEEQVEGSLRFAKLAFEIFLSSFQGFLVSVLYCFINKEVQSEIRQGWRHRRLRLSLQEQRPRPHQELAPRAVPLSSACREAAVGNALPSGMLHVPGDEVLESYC

Assay [2] has as its target T1, endogenous mouse GIPR (mouse (endogenous in primary mouse adipocytes and Neuro-2a cells)). The source holds these as a separate data set.
Assay [3] concerns the target T2, endogenous rat GIPR in INS1 832/13 cells (rat (endogenous in INS1 832/13)) (UniProt P43219).
T2 sequence: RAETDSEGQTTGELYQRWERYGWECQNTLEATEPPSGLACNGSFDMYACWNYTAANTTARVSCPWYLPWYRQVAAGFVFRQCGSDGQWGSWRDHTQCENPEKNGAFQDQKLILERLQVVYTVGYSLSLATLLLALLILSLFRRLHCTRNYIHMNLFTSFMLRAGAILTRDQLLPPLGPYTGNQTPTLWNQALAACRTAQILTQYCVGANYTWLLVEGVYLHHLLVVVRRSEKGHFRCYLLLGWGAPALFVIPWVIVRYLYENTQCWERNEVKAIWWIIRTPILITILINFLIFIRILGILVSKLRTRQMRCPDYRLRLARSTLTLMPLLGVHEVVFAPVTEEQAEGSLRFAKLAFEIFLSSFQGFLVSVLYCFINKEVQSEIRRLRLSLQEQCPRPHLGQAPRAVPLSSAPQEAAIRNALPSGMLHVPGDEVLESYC

As to YAEGTFISDYSIAMDKIRQQDFVNWLLAQRGKKSDWKHNITQ (ligand) [mouse GIP], in assay [1], the EC50 of cAMP production in mouse primary adipocytes differentiated in vitro is 3.8 nM and the EC50 of glycerol release (lipolysis) from primary mouse adipocytes differentiated in vitro came to 13 nM. Also, the EC50 of cAMP production in mouse Neuro-2a neuroblastoma cells in assay [2] came out at 6.35 nM.

Turning to YAEGTFISDYSIAMDKIRQQDFVNWLLAQKGKKNDWKHNLTQ (ligand) [rat GIP], the EC50 of cAMP production in rat INS1 832/13 cells in assay [3] worked out at 0.99 nM.

The values above are taken from article PMC7536395.
